{"source": "paper PMC7384961", "about": "(Cell, 2020)", "molecular_target": "T1, FLAG-BirA(R118G)-TBL1XR1 Y446S (human, UniProt Q9BZK7 1-514, Y446S)", "T1 sequence (looked up)": "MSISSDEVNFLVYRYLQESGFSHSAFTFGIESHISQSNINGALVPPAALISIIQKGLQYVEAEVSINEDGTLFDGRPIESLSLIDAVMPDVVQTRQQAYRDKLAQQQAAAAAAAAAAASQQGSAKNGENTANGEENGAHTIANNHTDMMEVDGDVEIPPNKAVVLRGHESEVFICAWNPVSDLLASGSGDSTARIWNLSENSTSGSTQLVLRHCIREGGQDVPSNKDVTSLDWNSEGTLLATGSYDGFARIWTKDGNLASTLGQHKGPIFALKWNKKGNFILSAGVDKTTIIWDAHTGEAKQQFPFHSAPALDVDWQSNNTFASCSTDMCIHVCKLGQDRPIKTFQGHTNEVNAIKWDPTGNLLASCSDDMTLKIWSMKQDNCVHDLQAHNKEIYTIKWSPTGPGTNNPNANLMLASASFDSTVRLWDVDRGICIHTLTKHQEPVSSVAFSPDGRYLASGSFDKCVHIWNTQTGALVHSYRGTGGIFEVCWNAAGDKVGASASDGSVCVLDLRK", "experiment": "proximity labelling", "data": [{"binder": "BACH2 (endogenous) (natural protein) not shown", "values": [{"measurement": "fold gain of interaction against TBL1XR1 WT", "result": "~6", "unit": "fold"}]}]}
